Assay: yeast display, Sf9 membrane polyspecificity reagent, FACS + sequencing; frameworks hold sequencing errors
Summary of the method: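 Polyreactivity labels are assigned by the sorting gate from which each nanobody was recovered. The gates were low and high (top ~1%), set on anti-HA fluorescence for expression and streptavidin fluorescence for reagent binding. Before sorting, galactose-induced (36–48 hours) yeast display cells were stained for 1 hour at 4 °C with 10% biotinylated, detergent-solubilized Sf9 membrane reagent.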

Row | Sequence | polyreactivity (PSR sort gate)
1 | QVQLVESGGGLVQAGGSLRLSCAASGFTLPVYGMGWYRQAPGQERELVAAISSRGGNTYYADSVKGRFTISRDNAKNTVYLQMNSLKPEDTAVYYCAAGGITYTGDDYWGQGTQVTVSS | high polyreactivity
2 | QVQLQESGGGLVQAGGCLRLSCAASGSIFTYAVMGWYRQAHGKEHELVATIDTGSSTYYADSVKGRITISRDNAKNTLYLQMNSLIPEDTAVYYCAVNTYCRVRYRYWGQGTQVTVSS | high polyreactivity
3 | QVQLVESGGGLVQAGGSLRLSCAASGNTFVPYAMGWYRQAPGKEREFVAAISSTSGSTYYADSVKGRFTISRDNAKNTVYLQMNSLTPEDTAVYYCAAANHKCSRMDYWGQGTQVTVSS | high polyreactivity
4 | QVQLVESGGGLVQSGGSLRLSCAASGSTVDDNAMGWSRQAPGQVMELVAAIDTSGGSTYADSVKGRFTISRYNAKNTVYLQMNSQKPEDTAVYYCAKPFSSNSWSHGYWGQGTQVTVSS | low polyreactivity
5 | QVQLVESGGGLVQAGGSLRLSCAASGSIIARYAMGWYRQAPGKETELVAAINSGTSTNYADSVKGRFTISRDNAKNTVYFQMHCLKPEDTEVYYCNTQWYVDNDTYTQTDYDYWGQGTQVTVSS | low polyreactivity
6 | QVQLVESGGGLVQAGGSLRLSCAASGSTFYIYAMGWYRQAPGKEREFFAAITWSGGRTFYADSVKGRFTISRDNAKNTVYFQMNSLKPEDTAVYYCAARFWSDKTGSRYYYWGQGTQVTVSS | high polyreactivity
7 | QVQLVESGGGLVQAGGSLRLSCSASGRIFRINAMGWYRQAPGKDRELVASISRRGGNTYYADSVKGRFTISRDNAKNTVYLQMNSLKPEDTAVYYCAADVHTPALYTYAAGDYWGQGTQVTVSS | low polyreactivity
8 | QVQLVESGGGLVQAGGSLRLSCAASGIIFRRYAMGWSRQAPGKERELVAAITHRGSTYYADSVKGRFTISRDNAKNTVYLQMNSLKPEDTAVYYCAADGFTRWGRYDYWGQGTQVTVSS | high polyreactivity
9 | QVQLVESGGGLVQAGGSLRLSCPASGSIIIRNAMGWYRQAPGKERELVAAISIGDGSTYADSVKGRFTISRDNAKNTVYLQMNSLKPEDTAVYYCAADRYGFYLESYYWGQGTQVTVSS | low polyreactivity
10 | QVQLVESGGGLVQAGGSLRLTCAASVSTFSRYAMGWYRQAPGKERELVAAISWRGGRTYYADSVKGRFTISRDNAKNTVYLQMNSLKPEDTAVYYCNAVSSFTSPRYDYWGQGTQVTVSS | high polyreactivity
11 | QVQLVESGGGLVQAGGSLRLSCAASGSIFSYYAMGWYRQAPGKERELVAAISKRGASTYYADSVKGRFTISRDNAKNTVYLQMNSLKPEDTAVYYCNRVLYDHSFPYNRGYDYWGQGTQVTVSS | high polyreactivity
12 | QVQLVESGGGLVQAGGSLRLSCAASGSTFYTYAMGWYRQAPGKERELVAAISYRGGSTYYADSVKGRFTISRDNAKNTVYLQMNSLKPEDTAVYYCNVDGVVVGTKRGGYDYWGQGTQVTVSS | low polyreactivity
13 | QVQLLESRGGLVQAGGSLRLSCAASGRTIYTYAMGWYRQAPRTVRELVAAITYRGGNTYYADSVKGRFTISRDNAKYTVYLQMNSLKAEDTAVYDCIRRVAYLSGYSYDYWGQGTQVTVSS | high polyreactivity
14 | QVQLVESGGGLVQAGGSLRLTCAASGLILYWYAMGLYRQAPGTEMELVAAISISGGSTYYADSVKGRFTISRDNAKNTVYLQMNSLKPEDTAVYYCAAVYFYSWEGDGDYWGQGTQVTVSS | low polyreactivity
15 | QVQLVESGGGLVQAGGSLRLSCAASGSIFTGYAMGWYRQAPGKERELVAAITYGSGRTYYADSVKGRFTISRDNAKNTLYLQMNSLKPEDTAVYYCAAKWSPYYYYIGYDYWGQGTQVTVSS | low polyreactivity
16 | QVQLVESGGGLVQAGGSLRLSCAASGFIFVPNAMGWYRQAPGKERELVAAITWSGSSTYYADSVKGRFTISRDNAKNTVYLQINSLKPEDTAVYYCAADYPVWDEFYDSYEYWGQGTQVTVSS | high polyreactivity
17 | QVQLVESGGGLVQAGGSLRLSCAASGRNIYSNAMGWYRQAPGKERELVAAIRWRDGSTYYADSVKGRFTISRDNAKNTVFLQMNSLKPVDTAVYYCAAVYWGEEYEYWGQGTQVTVSS | low polyreactivity
18 | QVQLVESGGGLVQAGGSLRLSCSASGRTFNKYAMGWYRQAPGKERELVAAISRSGGSTYYADSVKGRFTISRDNAKNTVYLQMNSLKPEDTAVYYCNAAYFGQHVGTGFDYWGQGTQVTVSS | high polyreactivity
19 | QVQLVESGGGLVQAGGSLRISCAASGRIFATNAMGWYRQAPGKERELVATITRSAGRTYYADSVKGRFTISRDTAKNTVYLQMNSLKPEDNAVYYFAASYGDTEPGYREYDYWGQGTQVTVSS | low polyreactivity
20 | QVQLVESGGGLVQAGGSLRLSCAASGGTFFQYAMGWYRQAPGKERELVAAITWSSGSTYYADSVKGRFTISRDNAKNTVYLQMNSLKPEDTAVYYDDYYTYGDYWGQGTQVTVSS | low polyreactivity
21 | QVQLVESGGGLVQAGGSLRFSCAPSGITFRFYAMGCYRQAPGKESEFVAAISSRGGRTYYADSVKGRFTISRDYAKNTVYLQMNSLKPEDTAVYYCAAGKIGRYHYDYWGQGTQVTVSS | high polyreactivity
22 | QVQLVESGGGLVQAGGSLRLSCAASGLIFYKYAMGWYRQAPGKEREFVAAISGSGGSTYYADSVKGRFTISRDNAKNTVYLQMNSLKPEDTAVYYCAVRQRYGPARYDYWGQGTQVTVSS | high polyreactivity

Row | Sequence | polyreactivity (PSR sort gate)
23 | QVQLVESGGGLVQAGGSLRLSCAASGRTFSGYAMGWDRQAPGKERELDAAISRGGSTNYADSVKGRFTISRDNAKNTVYLQMNSLKPEDTAVYYCAVRVYYGWAQPGYYYWGQGTQVTVSS | high polyreactivity
24 | QVQLVESGGGLVQAGGSLRLSCAASGIIFELYAMGWYRQAPGKERELVAAISISGDSTYYADSVTGRFTISRDTAKNTVYLQMKSLKPEDTAVYYCAKQSYRWPYLVTKYYEYDYWGQGTQVTVSS | low polyreactivity
25 | QVQLVESGGGLVQAGGSLRLSCAASGSTFRGYAMGWYRQAPGKEREIVAAISRRGGTTYYADSVKGRFTISRDNAKNTVYLQMNSLKPEDTAVYYCNKVYYQHYLAFDYWGQGTQVTVSS | high polyreactivity
26 | QVQLVESGGGLVQAGGSLRLSCAASGRTFRVYAMGWYRQAPGKERELVAAIRRSGGSTYYADSVKGRFTISRDNAKNTVYLQMNSLKPEDTAVYYCAAYFYYWGSTFVRYEYWGLGTQVTVSS | high polyreactivity
27 | QVQLVESGGGLVQAGGSLRLSCAASGRIFYYYAMGWYRQAPGKERELVADITSGGSTNYADSVKGRFTISRDNAKNTVYLQMNSLKPEDTAVYYCAAEYGDVYVWTYDYWGQGTQVTVSS | high polyreactivity
28 | QVQLVESGGGLVQAGGSLRLSCAASGRIFYSYAMGWYRQAPGKERELVAAIDESDGSTYYADSVKGRFTISRDNAKNTVYLQMNSLKPEDTAVYYCAADSLLVLFDYWGQGTQVTVSS | low polyreactivity
29 | QVQLVESGGGLVQAGGSLRLSCAASGSTLGVYAMGWYRQAPGKERELVAAISSGGSTTYADSVKGRFTISRDNAKNTDYLQMNSLKPEDTAVYYCAATNVRGVYYWGQGTQVTVSS | high polyreactivity
30 | QVQLVESGGGLVQAGGSLRLSCAASGRIFSSKAMGWYRQAPGKERELVAAISWIVGRTYYADSVKGRFTISRDNAKNTVYLQMNSLIPEATAVYYCAKGSYYVRNRGWGYDYWGQGTQVTVSS | high polyreactivity
31 | QVQLVESGGGLVQAGGSLRLSCAASGLTFKLYVMGWYRQAPRKERELVAAISGGGSTYYADSVKGRFTISRDNAKNTVYLQMYSLKPEDTAVYYCAAVRYFEYEYWGQGTQVTVSS | low polyreactivity
32 | QVQLQESGGGLVQAGGSLRLSCAASGTIYWLWAMGWYCLAPGKERELVASISSGGTTYHADSVKGRFTISRDNAKYSVYLQMNSLKPEDTAVFYSAAFYVASAKLGYWGQGSQVTVSS | low polyreactivity
33 | QVQLQESGGGLVQAGGSLRLSCAASGSIFVSVTMGWYRQAPGKERELVASIGRGSTTNHADSVKGRFTISRDNATNIFYLLMNSLNPEDTAVYYCAALESYGKYHGYWGQGTQVTVSS | low polyreactivity
34 | QVQLVESGGGLVQAGGSLRLICAASGSTYSYYAMAWYRQAPGKERELVAAINSSGGSTYYADSEKGRFTISRDKAKNTVYLQMNSLKPEDTAVYYGAAARRRTGVRMDYWGQGTQVTVSS | high polyreactivity
35 | QVQLLESGGGLVQAGGSLRLSCAASGNTFYPNAMGWYRPAPGKETELVAAISSSGGSTYYADSVKGRFTISRDNAKNTVYLQMKSLNPEDTAVYYCASEFDYPLSGEYYYWGKGTQVTVSS | high polyreactivity
36 | QVQLVESGGGLVQAGGSLRLSCAASGLTFGLYAMGWYRQAPGKERELVAVITAGGRTYYADSVKGRFTISRDNAKNTVYLQMNSLKPEDTAVYYCATVNYGSGRGYRRVYTAYYYWGQGTQVTVSS | low polyreactivity
37 | QVQLVESGGGLVQAGGSLRLSCAASGITFGKNALGWYRQAPGKERELVATIRRSGGSTYADSVKGRFTISRDNAKNTVYLQMNSLKPEDTAVYYCNARSWNTYNYWGQGTQVTVSS | high polyreactivity
38 | QVQLVESGGGLVQAGGSLRLSCAASGRTLVYYAMGSYRQSPGKERELVAAISWSGSRTYYADSVKGRFTISRDNAKNTVYLQMNSLKPEDTAVYYCATLTFRTNGTMDYWGQGTQVTVSS | high polyreactivity
39 | QVQLVESGGGLVQAGGSLRLSCAASGSTFTVNTMGWYRQAPGKERELVAAISFGGGPTYYADSVKGRFTISRDNAKNTVYLQMNSLKPEDTAVYSCAARGSLWNARKYYYWGQGTQVTVSS | high polyreactivity
40 | QVQLVESGGGIVQAGGSLRLSCAASGTTIEYNAMGWYRQAPGKERELVASSTNYADSVKGRFTISRDNAKNTVYFQMNILKPEDTAVYYCAREQGVNRNHDYWGQGTQVTVSS | low polyreactivity
41 | QVQLVESGGGLVQAGGSLRLICAASGSIFAGNAMGWYRQAPGKERELVAAITWSGGSTYYADSVKGRFTISRDNAKNTVYLQMNSLKPEDTAVYYCAAPTQADVVGYDYWGQGTQVTVSS | low polyreactivity
42 | QVQLVESGGGLVKAGCSLRLSCAASGRIFIVNAMGWYRQAPGKERELVAAISGSGGRTYYADSVKGRFTNSRDNAKNTVYLQMNSLKPEVTAVYYCAAVLRTQPRRYDYWGQGTQVTVSS | high polyreactivity
43 | QVQLVESGGGLVQAGGSLRLSCAASGITFVYYAMRSYRQAPGKERELVAAITRSGDSTYYADSVKGRFTISRDNAKNTVYLQMNSLKPEDSAVYYCAAESYYSTYQVEYYYWGQGTQVTVSS | high polyreactivity

Source: the nanobody polyreactivity screen of Harvey et al. (2022)
